# Earlier results as cited in publication PMC3433420.
# Like-named read-outs stand apart in the source and are kept apart here.
# Tests used:
# Conditions in all cases: cited from earlier work
# TENC1 (Homo sapiens) = TENC1 (Homo sapiens) (UniProt Q63HR2)
# PLCG1-C (Homo sapiens) = PLCG1-C (Homo sapiens) (UniProt P19174)
# PIK3R3-N (Homo sapiens) = PIK3R3-N (Homo sapiens) (UniProt Q92569)
# NCK2 (Homo sapiens) [1] = target: NCK2 (Homo sapiens) (UniProt O43639)
# PIK3R2-N (Homo sapiens) = PIK3R2-N (Homo sapiens) (UniProt O00459)
# ZAP70-C (Homo sapiens) = ZAP70-C (Homo sapiens) (UniProt P43403)
# CRKL (Homo sapiens) [2] = target: CRKL (Homo sapiens) (UniProt P46109)
# PTK6 (Homo sapiens) = PTK6 (Homo sapiens) (UniProt Q13882)
# PLCG1-NC (Homo sapiens) = PLCG1-NC (Homo sapiens) (UniProt P19174)
# PIK3R2-NC (Homo sapiens) = PIK3R2-NC (Homo sapiens) (UniProt O00459)
# SYK-NC (Homo sapiens) [3] = target: SYK-NC (Homo sapiens) (UniProt P43405)
# SLA (Homo sapiens) = SLA (Homo sapiens) (UniProt Q13239)
# ABL2 (Homo sapiens) [4] = target: ABL2 (Homo sapiens) (UniProt P42684)
# PIK3R1-NC (Homo sapiens) = PIK3R1-NC (Homo sapiens) (UniProt P27986)
# VAV3 (Homo sapiens) = VAV3 (Homo sapiens) (UniProt Q9UKW4)
# PIK3R3-NC (Homo sapiens) [5] = target: PIK3R3-NC (Homo sapiens) (UniProt Q92569)
# PIK3R2-C (Homo sapiens) = PIK3R2-C (Homo sapiens) (UniProt O00459)
# SH2B2 (Homo sapiens) = SH2B2 (Homo sapiens) (UniProt O14492)
# SRC (Homo sapiens) = SRC (Homo sapiens) (UniProt P12931)
# RASA1-N (Homo sapiens) [6] = target: RASA1-N (Homo sapiens) (UniProt P20936)
# VAV2 (Homo sapiens) = VAV2 (Homo sapiens) (UniProt P52735)
# SHC1 (Homo sapiens) = SHC1 (Homo sapiens) (UniProt P29353)
# TNS3 (Homo sapiens) = TNS3 (Homo sapiens) (UniProt Q68CZ2)
# SHC3 (Homo sapiens) = SHC3 (Homo sapiens) (UniProt Q92529)
# BCAR3 (Homo sapiens) [7] = target: BCAR3 (Homo sapiens) (UniProt O75815)
# CRK (Homo sapiens) = CRK (Homo sapiens) (UniProt P46108)
# HCK (Homo sapiens) = HCK (Homo sapiens) (UniProt P08631)
# ABL1 (Homo sapiens) = ABL1 (Homo sapiens) (UniProt P00519)
# VAV1 (Homo sapiens) = VAV1 (Homo sapiens) (UniProt P15498)
# GRB7 (Homo sapiens) = GRB7 (Homo sapiens) (UniProt Q14451)
# TXK (Homo sapiens) = TXK (Homo sapiens) (UniProt P42681)
# PIK3R1-N (Homo sapiens) = PIK3R1-N (Homo sapiens) (UniProt P27986)
# SLA2 (Homo sapiens) = SLA2 (Homo sapiens) (UniProt Q9H6Q3)
# PIK3R3-C (Homo sapiens) = PIK3R3-C (Homo sapiens) (UniProt Q92569)
# NCK1 (Homo sapiens) = NCK1 (Homo sapiens) (UniProt P16333)
# BCAR3 (Homo sapiens) [8] = target: BCAR3 (Homo sapiens) (UniProt O75815); remark: listed apart in the source
# SHC1-PTB (Homo sapiens) = SHC1-PTB (Homo sapiens) (UniProt P29353)
# PIK3R3-NC (Homo sapiens) [9] = target: PIK3R3-NC (Homo sapiens) (UniProt Q92569); remark: listed apart in the source
# RASA1-N (Homo sapiens) [10] = target: RASA1-N (Homo sapiens) (UniProt P20936); remark: listed apart in the source
# CRKL (Homo sapiens) [11] = target: CRKL (Homo sapiens) (UniProt P46109); remark: listed apart in the source
# NCK2 (Homo sapiens) [12] = target: NCK2 (Homo sapiens) (UniProt O43639); remark: listed apart in the source
# ABL2 (Homo sapiens) [13] = target: ABL2 (Homo sapiens) (UniProt P42684); remark: listed apart in the source
# SYK-NC (Homo sapiens) [14] = target: SYK-NC (Homo sapiens) (UniProt P43405); remark: listed apart in the source
# BLK (Homo sapiens) = BLK (Homo sapiens) (UniProt P51451)
# PLCG2-NC (Homo sapiens) = PLCG2-NC (Homo sapiens) (UniProt P16885)
# Chain of PLCG2-NC (Homo sapiens) (P16885 527-740): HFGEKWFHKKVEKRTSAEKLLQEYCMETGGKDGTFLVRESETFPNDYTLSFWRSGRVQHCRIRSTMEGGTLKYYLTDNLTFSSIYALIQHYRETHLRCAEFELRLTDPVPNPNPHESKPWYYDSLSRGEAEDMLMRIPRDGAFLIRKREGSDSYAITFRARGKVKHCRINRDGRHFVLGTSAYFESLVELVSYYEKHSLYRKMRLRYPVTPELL
# Chain of ABL2 (Homo sapiens) (P42684 168-268): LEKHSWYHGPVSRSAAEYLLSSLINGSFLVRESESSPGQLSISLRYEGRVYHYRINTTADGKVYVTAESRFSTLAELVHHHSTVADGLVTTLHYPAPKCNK
# Chain of BCAR3 (Homo sapiens) (O75815 149-258): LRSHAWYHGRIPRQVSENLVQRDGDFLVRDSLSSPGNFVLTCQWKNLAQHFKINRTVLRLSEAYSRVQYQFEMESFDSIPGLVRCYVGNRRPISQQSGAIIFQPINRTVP
# Chain of CRKL (Homo sapiens) (P46109 9-107): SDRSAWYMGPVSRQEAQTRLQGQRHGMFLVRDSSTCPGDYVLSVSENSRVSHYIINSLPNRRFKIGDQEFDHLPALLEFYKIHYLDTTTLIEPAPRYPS
# Chain of NCK2 (Homo sapiens) (O43639 280-380): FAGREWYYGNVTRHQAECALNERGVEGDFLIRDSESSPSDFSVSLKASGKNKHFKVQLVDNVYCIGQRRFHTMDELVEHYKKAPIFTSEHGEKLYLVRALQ
# Chain of RASA1-N (Homo sapiens) (P20936 176-446): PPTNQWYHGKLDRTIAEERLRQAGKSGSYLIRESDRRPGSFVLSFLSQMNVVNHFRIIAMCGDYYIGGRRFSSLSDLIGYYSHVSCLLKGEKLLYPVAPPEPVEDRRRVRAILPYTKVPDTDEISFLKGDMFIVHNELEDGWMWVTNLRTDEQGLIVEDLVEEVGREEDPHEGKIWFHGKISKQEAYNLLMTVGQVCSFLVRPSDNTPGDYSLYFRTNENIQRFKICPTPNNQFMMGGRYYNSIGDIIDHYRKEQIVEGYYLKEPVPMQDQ
# Chain of TXK (Homo sapiens) (P42681 145-251): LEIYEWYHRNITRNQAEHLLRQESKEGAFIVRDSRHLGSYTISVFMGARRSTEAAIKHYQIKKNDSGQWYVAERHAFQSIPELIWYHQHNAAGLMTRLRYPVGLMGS
# Chain of SLA2 (Homo sapiens) (Q9H6Q3 89-196): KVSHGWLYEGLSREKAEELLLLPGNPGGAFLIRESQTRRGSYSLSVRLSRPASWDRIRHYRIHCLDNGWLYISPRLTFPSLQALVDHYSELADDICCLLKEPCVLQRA
# Chain of SLA (Homo sapiens) (Q13239 79-180): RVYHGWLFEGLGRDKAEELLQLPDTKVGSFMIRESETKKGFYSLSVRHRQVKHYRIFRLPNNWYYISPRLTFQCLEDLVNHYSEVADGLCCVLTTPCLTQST
# Chain of SHC1 (Homo sapiens) (P29353 483-583): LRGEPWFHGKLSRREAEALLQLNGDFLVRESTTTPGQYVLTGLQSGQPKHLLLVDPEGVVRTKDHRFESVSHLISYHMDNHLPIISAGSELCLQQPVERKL
# Chain of SHC1-PTB (Homo sapiens) (P29353 483-583): as above
# Chain of SH2B2 (Homo sapiens) (O14492 412-520): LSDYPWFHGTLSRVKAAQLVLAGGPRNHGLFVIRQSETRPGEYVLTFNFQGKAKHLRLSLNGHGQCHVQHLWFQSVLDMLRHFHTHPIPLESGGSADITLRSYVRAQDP
# Chain of PLCG1-NC (Homo sapiens) (P19174 545-761): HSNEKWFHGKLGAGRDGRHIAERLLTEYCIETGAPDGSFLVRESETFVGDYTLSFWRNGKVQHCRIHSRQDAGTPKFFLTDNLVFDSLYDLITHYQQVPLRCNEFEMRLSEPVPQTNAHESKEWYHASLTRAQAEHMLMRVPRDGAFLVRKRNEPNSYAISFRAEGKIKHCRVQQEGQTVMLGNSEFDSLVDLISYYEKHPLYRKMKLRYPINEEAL
# Chain of PLCG1-C (Homo sapiens) (P19174 545-761): as above
# Chain of VAV1 (Homo sapiens) (P15498 666-770): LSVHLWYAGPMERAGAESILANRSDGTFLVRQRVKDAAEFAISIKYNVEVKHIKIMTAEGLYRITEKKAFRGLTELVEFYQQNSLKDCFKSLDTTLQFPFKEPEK
# Chain of VAV3 (Homo sapiens) (Q9UKW4 667-771): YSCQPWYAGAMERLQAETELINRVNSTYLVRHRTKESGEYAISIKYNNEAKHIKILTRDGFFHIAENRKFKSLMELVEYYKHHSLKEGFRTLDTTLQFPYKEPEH
# Chain of VAV2 (Homo sapiens) (P52735 668-772): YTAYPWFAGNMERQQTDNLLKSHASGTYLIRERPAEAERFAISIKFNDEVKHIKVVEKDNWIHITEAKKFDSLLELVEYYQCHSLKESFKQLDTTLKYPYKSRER
# Chain of HCK (Homo sapiens) (P08631 139-246): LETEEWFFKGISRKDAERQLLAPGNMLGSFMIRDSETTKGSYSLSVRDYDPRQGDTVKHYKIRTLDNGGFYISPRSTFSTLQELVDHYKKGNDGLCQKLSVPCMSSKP
# Chain of CRK (Homo sapiens) (P46108 8-123): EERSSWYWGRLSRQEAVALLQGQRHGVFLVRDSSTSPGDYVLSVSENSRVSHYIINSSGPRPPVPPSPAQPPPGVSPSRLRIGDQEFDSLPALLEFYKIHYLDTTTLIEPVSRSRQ
# Chain of ABL1 (Homo sapiens) (P00519 122-222): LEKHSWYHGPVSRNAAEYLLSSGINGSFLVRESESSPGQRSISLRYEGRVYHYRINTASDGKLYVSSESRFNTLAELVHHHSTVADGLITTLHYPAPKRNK
# Chain of PTK6 (Homo sapiens) (Q13882 73-175): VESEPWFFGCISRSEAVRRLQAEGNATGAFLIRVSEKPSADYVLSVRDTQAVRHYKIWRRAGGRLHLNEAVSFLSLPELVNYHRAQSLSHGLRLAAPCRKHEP
# Chain of SHC3 (Homo sapiens) (Q92529 494-594): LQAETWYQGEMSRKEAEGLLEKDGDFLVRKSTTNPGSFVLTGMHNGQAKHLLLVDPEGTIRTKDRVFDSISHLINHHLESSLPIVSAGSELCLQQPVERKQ
# Chain of TENC1 (Homo sapiens) (Q63HR2 1135-1252): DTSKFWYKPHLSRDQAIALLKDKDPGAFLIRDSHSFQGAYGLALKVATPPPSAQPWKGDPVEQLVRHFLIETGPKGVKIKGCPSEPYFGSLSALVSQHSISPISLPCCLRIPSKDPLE
# Chain of PIK3R2-C (Homo sapiens) (O00459 325-721): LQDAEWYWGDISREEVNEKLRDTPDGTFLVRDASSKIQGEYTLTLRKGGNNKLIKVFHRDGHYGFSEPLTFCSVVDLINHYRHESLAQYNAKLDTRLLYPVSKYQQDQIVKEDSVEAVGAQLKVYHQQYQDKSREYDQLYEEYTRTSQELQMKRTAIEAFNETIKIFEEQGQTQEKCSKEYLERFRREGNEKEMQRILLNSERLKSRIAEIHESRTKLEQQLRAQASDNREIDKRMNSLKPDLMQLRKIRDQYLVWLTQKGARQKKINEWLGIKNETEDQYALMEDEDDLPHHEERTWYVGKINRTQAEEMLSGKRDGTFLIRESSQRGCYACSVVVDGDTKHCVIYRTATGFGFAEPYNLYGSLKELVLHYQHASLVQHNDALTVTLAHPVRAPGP
substance,measurement,setting,value
…pYAAMGACP,apparent Kd (screen),TENC1 (Homo sapiens),2 µM
same,apparent Kd (screen),PLCG1-C (Homo sapiens),0.689 µM
same,apparent Kd (screen),PIK3R3-N (Homo sapiens),0.499 µM
same,apparent Kd (screen),NCK2 (Homo sapiens) [1],0.55 µM
same,apparent Kd (screen),PIK3R2-N (Homo sapiens),0.12 µM
same,apparent Kd (screen),ZAP70-C (Homo sapiens),1.44 µM
same,apparent Kd (screen),CRKL (Homo sapiens) [2],0.435 µM
same,apparent Kd (screen),PTK6 (Homo sapiens),0.44 µM
same,apparent Kd (screen),PLCG1-NC (Homo sapiens),0.72 µM
same,apparent Kd (screen),PIK3R2-NC (Homo sapiens),0.078 µM
same,apparent Kd (screen),SYK-NC (Homo sapiens) [3],0.596 µM
same,apparent Kd (screen),SLA (Homo sapiens),2 µM
same,apparent Kd (screen),ABL2 (Homo sapiens) [4],0.147 µM
same,apparent Kd (screen),PIK3R1-NC (Homo sapiens),0.055 µM
same,apparent Kd (screen),VAV3 (Homo sapiens),1.54 µM
same,apparent Kd (screen),PIK3R3-NC (Homo sapiens) [5],0.014 µM
same,apparent Kd (screen),PIK3R2-C (Homo sapiens),0.926 µM
same,apparent Kd (screen),SH2B2 (Homo sapiens),2 µM
same,apparent Kd (screen),SRC (Homo sapiens),1.5 µM
same,apparent Kd (screen),RASA1-N (Homo sapiens) [6],0.906 µM
same,apparent Kd (screen),VAV2 (Homo sapiens),0.3 µM
same,apparent Kd (screen),SHC1 (Homo sapiens),0.595 µM
same,apparent Kd (screen),TNS3 (Homo sapiens),1.5 µM
same,apparent Kd (screen),SHC3 (Homo sapiens),0.636 µM
same,apparent Kd (screen),BCAR3 (Homo sapiens) [7],2 µM
same,apparent Kd (screen),CRK (Homo sapiens),0.264 µM
same,apparent Kd (screen),HCK (Homo sapiens),0.581 µM
same,apparent Kd (screen),ABL1 (Homo sapiens),2 µM
same,apparent Kd (screen),VAV1 (Homo sapiens),2 µM
same,apparent Kd (screen),GRB7 (Homo sapiens),0.979 µM
same,apparent Kd (screen),TXK (Homo sapiens),1.67 µM
same,apparent Kd (screen),PIK3R1-N (Homo sapiens),0.528 µM
same,apparent Kd (screen),SLA2 (Homo sapiens),2 µM
same,apparent Kd (screen),PIK3R3-C (Homo sapiens),0.499 µM
same,apparent Kd (screen),NCK1 (Homo sapiens),0.208 µM
…pYSEAKTPI,apparent Kd (screen),BCAR3 (Homo sapiens) [8],1.78 µM
same,apparent Kd (screen),SHC1-PTB (Homo sapiens),2 µM
same,apparent Kd (screen),PIK3R3-NC (Homo sapiens) [9],2 µM
same,apparent Kd (screen),RASA1-N (Homo sapiens) [10],0.953 µM
same,apparent Kd (screen),CRKL (Homo sapiens) [11],1.76 µM
same,apparent Kd (screen),NCK2 (Homo sapiens) [12],2 µM
same,apparent Kd (screen),ABL2 (Homo sapiens) [13],0.071 µM
same,apparent Kd (screen),SYK-NC (Homo sapiens) [14],0.923 µM
…pYSEDPTVPd,apparent Kd (screen),BLK (Homo sapiens),0.763 µM
same,apparent Kd (screen),PLCG2-NC (Homo sapiens),1.06 µM
